# What was measured:
# [1] = tested on: CCR5 sulfated by TPST2 in cell lysates; experiment: Western blotting of transfected HEK293 cell lysates with BA8 as detection antibody; assay type: binding; details: 100 nM BA8 (full-length IgG) as detection antibody; lysates of NC, C, C1, C2, C12 cells
# Excerpt: We prepared model cells with transient overexpression to examine whether BA8 can recognize sulfated full-length CCR5. As referred in the Introduction section, previous research has shown that protein tyrosine sulfotransferases (TPSTs) are responsible for tyrosine sulfation ([10], [11], [12]). Those two isoforms of TPST (TPST1 and TPST2) and CCR5 genes were transiently transfected in the following five combinations to HEK293 cells: Negative Control (NC); CCR5 (C); CCR5 + TPST1 (C1); CCR5 + TPST2 (C2); and CCR5 + TPST1 + TPST2 (C12). Each protein contained the following tag sequences at the C-terminus: CCR5 – FLAG, TPST1 – HA, and TPST2 – Myc. The overexpression of each protein was confirmed by western blotting using tag antibodies (Fig. 5, A and B).
# We prepared recombinant BA8 as a full-length IgG form for subsequent cell-based assays (Fig. S2, C and D).
# The cell lysate suspended in RIPA Buffer was placed on ice for 30 min, followed by centrifugation at 20,000 × g for 20 min. […] Protein bands were detected by incubating the membranes with anti-DDDDK-tag mAb-HRP-DirecT, anti-HA tag mAb-HRP-DirecT, anti-Myc tag mAb-HRP-DirecT (all from MBL Lifescience), or each IgG followed by incubation with horseradish peroxidase (HRP)-conjugated anti-rabbit IgG, HRP-linked antibody (Cell Signaling Technology) at room temperature for 30 min. […]
# [2] = tested on: sulfated N-terminal peptide of CCR5; experiment: ITC analysis of BA8 Fab (wild type and mutants) with the sulfated peptide; assay type: binding; details: 10 μM Fab in cell, 100 μM sulfated peptide in syringe, PBS, 25 °C
# Excerpt: To determine the thermodynamic parameters accompanying the interaction, we performed an ITC analysis (Fig. 2B, Table 2).
# To further dissect how molecular recognition occurs, we evaluated the contribution of individual residues of BA8 to the recognition of the sulfated peptide. We analyzed the crystal structure using the PDB PISA server, and we conducted mutation analyses in which the residues predicted to form hydrogen bonds or located at the interface were mutated to alanine (Fig. 3B).
# The ITC experiments were performed using a MicroCal PEAQ-ITC (Malvern Panalytical, Malvern, UK). The BA8 Fab fragment antibody, sufficiently dialyzed in PBS, was adjusted to 10 μM for the cells, and the CCR5 N-terminal peptide, dissolved in the dialysate, was adjusted to 100 μM for the syringe. The first injection of 0.5 μl (omitted from the analysis) was followed by 19 injections of 2 μl with 120 s intervals at a constant temperature of 25 °C. The titration syringe was continuously stirred at 750 rpm.
# The baselines were smoothly adjusted for the step after each titration saturated and fitted as one set of sites binding in MicroCal PEAQ-ITC Analysis Software (Malvern Panalytical, Malvern, UK).
molecule,measurement,setting,value
"BA8: rabbit antibody clone from phage display that specifically recognizes the sulfated N-terminal peptide of CCR5 (antibody, V domains shown) VH: QSLEESGGGLFKPTDTLTLTCTVSGFSLSSYSIRWVRQAPGNGLEWIGAIGSGGNAYYTSWAKSRSTITRNTNENTVTLKMTSLTVADTATYFCARGGINFGIWGPGTLVTVSS VL: AAVLTQTPSPVSAAVGSTVTINCQSSQSVYSKNWLSWFQQKPGQPPKQLIYSASTLDSGVPSRFSGSGSGTQFTLTISGVQCDDAATYYCQGTYGDASAFGGGTEVVVK","recognition of CCR5 in cell lysates by western blotting, in words",[1],specifically recognized CCR5 in the lysates of cells C2 and C12
same,ΔH,[2],-28.7 kcal/mol
